Biological target: FLAG-METTL5-G61D (human) (UniProt Q9NRN9)
Experiment: co-IP; anti-FLAG M2 beads in clarified lysate of transfected HeLa cells, 1 h at 4 °C; 50 mM Tris pH 7.4, 150 mM NaCl, 10% glycerol, 1.5 mM MgCl2, 0.5 mM EDTA, 0.2% NP-40, 1 mM DTT; three washes; Western blot with anti-FLAG and anti-TRMT112

Chain of UniProt Q9NRN9 (Q9NRN9 whole entry G61D): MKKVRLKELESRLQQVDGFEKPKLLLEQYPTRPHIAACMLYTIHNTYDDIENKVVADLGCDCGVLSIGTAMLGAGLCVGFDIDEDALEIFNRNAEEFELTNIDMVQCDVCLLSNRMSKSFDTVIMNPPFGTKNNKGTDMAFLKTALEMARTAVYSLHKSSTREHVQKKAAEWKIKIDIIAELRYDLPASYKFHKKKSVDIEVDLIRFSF

B1: TRMT112 (natural protein)
chain: MKLLTHNLLSSHVRGVGSRGFPLRLQATEVRICPVEFNPNFVARMIPKVEWSAFLEAADNLRLIQVPKGPVEGYEENEEFLRTMHHLLLEVEVIEGTLQCPESGRMFPISRGIPNMLLSEEETES
Question: B1 was tested. Which TRMT112 bound relative to that bound to FLAG-METTL5-WT did it give?
Answer: 5 to 15%
